Entries after “also recorded” stand apart in the source; their conditions may differ.
Experiments:
human endothelial cells = assay: FACS binding of biotinylated proteins to endothelial cells in suspension; format: cell-based; settings: 0.1 μM tTF-RGD, 1 μM competing peptide
Description: FIG. 6: Binding of tTF and tTF-RGD to human endothelial cells. A: FACS analysis of endothelial cells incubated with 0.1 μM tTF (2) or with 0.1 μM tTF-RGD (3) for 60 min at 4° C. […] Curves 1 in A and B show the negative control.
Next the specific binding of tTF-RGD to αvβ3 on endothelial cells was evaluated. For this, the differential binding of biotinylated tTF and tTF-RGD to endothelial cells in suspension was analysed by FACS (Fluorescence Activated Cell Sorting). The fact that all endothelial cells held in tissue culture are activated, i.e. express αvβ3 molecules, is utilized experimentally. This can be detected by various immunohistochemical methods. A cultivated endothelial cell thus corresponds, in relation to its expression pattern with respect to αvβ3 to a tumor endothelial cell. Accordingly, a cultivated endothelial cell can be used as a model system for the specific binding of substances to tumor endothelial cells and also permits predictions to be made concerning the expected toxicity.
Streptavidin-phycoerythrin was used as the detection method. The measured fluorescence intensity for tTF-RGD was higher by a factor of 8 than for tTF (FIG. 6A). Furthermore, the binding of 0.1 μM tTF-RGD to endothelial cells was lowered competitively by 75% by the administration of 1 μM of the synthetic peptide GRGDSP (SEQ ID NO:33) (FIG. 6B). […]

integrin αvβ3 = integrin αvβ3 (Homo sapiens, UniProt P05106+P06756); assay: ELISA binding to immobilized purified αvβ3
Sequence of integrin αvβ3 (P06756 31-889 limits assumed): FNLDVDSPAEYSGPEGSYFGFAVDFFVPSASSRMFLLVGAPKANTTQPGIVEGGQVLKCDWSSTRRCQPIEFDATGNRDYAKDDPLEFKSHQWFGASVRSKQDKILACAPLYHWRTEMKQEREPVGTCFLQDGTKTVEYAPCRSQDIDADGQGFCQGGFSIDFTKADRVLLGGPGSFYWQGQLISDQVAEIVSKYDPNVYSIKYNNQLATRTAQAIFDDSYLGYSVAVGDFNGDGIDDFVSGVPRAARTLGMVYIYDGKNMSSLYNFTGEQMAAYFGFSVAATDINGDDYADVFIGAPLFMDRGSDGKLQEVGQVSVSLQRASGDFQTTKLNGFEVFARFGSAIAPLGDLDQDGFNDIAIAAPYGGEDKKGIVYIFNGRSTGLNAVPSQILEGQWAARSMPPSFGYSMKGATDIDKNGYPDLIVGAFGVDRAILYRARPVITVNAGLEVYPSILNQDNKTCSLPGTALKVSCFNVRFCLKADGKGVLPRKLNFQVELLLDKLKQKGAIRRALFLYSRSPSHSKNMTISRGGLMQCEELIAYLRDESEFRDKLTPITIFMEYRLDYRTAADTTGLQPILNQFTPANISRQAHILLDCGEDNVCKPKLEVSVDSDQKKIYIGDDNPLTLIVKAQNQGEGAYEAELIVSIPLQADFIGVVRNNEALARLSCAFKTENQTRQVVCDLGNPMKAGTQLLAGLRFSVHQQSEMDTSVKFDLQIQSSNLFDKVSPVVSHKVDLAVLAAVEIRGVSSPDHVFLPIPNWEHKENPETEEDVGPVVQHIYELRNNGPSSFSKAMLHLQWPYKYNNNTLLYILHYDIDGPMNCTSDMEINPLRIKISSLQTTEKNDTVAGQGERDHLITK
Sequence of integrin αvβ3 (P06756 891-1048 limits assumed): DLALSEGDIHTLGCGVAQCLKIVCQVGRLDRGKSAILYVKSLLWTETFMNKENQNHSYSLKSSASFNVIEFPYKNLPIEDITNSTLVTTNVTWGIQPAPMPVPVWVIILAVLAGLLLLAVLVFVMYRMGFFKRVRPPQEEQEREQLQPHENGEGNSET
Sequence of integrin αvβ3 (P05106 27-788): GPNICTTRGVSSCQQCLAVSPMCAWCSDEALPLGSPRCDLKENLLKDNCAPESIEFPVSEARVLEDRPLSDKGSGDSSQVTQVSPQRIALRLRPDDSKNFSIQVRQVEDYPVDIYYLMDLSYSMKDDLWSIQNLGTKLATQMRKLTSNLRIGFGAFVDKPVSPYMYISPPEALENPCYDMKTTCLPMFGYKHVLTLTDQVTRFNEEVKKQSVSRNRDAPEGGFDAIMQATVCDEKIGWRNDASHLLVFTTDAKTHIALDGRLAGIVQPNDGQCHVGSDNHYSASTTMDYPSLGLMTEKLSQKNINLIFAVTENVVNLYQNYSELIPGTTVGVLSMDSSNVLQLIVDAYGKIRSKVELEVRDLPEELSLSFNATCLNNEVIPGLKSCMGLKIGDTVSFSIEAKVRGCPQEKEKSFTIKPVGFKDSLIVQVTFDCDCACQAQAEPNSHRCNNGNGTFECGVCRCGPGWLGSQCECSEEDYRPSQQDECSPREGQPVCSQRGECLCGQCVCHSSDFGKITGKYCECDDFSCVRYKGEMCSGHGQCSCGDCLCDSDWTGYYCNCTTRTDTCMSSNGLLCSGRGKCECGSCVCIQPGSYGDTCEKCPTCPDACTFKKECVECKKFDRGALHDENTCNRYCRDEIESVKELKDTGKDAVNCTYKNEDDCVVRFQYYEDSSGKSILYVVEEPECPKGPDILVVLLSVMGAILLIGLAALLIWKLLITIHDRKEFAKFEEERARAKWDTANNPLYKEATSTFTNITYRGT
Description: FIG. 4: Binding of tTF, tTF-RGD and tTF-NGR to integrin αvβ3. The binding of 0.1 μM tTF, tTF-RGD and tTF-NGR to immobilized αvβ3 was quantified with a polyclonal antibody against human TF (American Diagnostica) in an ELISA. The results are presented as median and interquartile range. The differences in binding between tTF-RGD and tTF or between tTF-NGR and tTF were statistically significant (p<0.001, Mann-Whitney test).

[1] = test system: human lung carcinoma (CCL185); assay: CCL185 lung carcinoma xenograft in athymic nude mice, intravenous therapy; format: in vivo
Text: FIG. 7: Inhibition of a human lung carcinoma (CCL185) growing as a xenograft in athymic nude mice by intravenous therapy with tTF fusion proteins (tTF-RGD, n=6; tTF-NGR, n=6) compared with tumor growth with infusion of physiological saline solution (NaCl, n=8) or tTF (n=1). The vertical arrows indicate the times of injection with the respective substances.
c: Inhibition of a human lung carcinoma (CCL185) growing as a xenograft in athymic nude mice by intravenous therapy with tTF fusion proteins (tTF-RGD, n=11) compared with the growth of the tumors in infusion of physiological saline solution (NaCl, n=10) or tTF (n=5). The vertical arrows indicate the times of the injections with the respective substances.
(§1) The tTF-RGD and tTF-NGR fusion proteins were evaluated with respect to their effects and side-effects on xenografts of human tumors in athymic nude mice. The models established in our laboratory were used for this (33, 34). The cell lines CCL185 (human adenocarcinoma of the lung) and M-21 (human melanoma) were injected subcutaneously into the flank of male BALB/c nude mice (9-12 weeks old). On attaining a tumor volume of about 50-100 mm^3 (CCL185) or 400-600 mm^3 (M−21), the mice were assigned to four groups at random. Group 1 received only physiological saline solution (NaCl), group 2 tTF, group 3 tTF-RGD, and group 4 tTF-NGR (in each case 1.5-2.0 mg/kg body weight (BW) of the protein). The injections were made in the caudal vein of the animals at intervals of 1-3 days (depending on the growth rate of the particular cell line). Considerable therapeutic activity of the fusion proteins was observed.

tumor blood vessels = assay: Macroscopy and histology of tumors after injection (thrombosis induction in tumor vessels, necrosis); format: in vivo, mice
Description: FIG. 9: Macroscopic in vivo photograph of a tumor-bearing mouse 20 min after injection of the tTF-NGR fusion protein (A, left half of the picture) or NaCl (A, right half of the picture). […] After 60 min, the two mice were exsanguinated, the tumor was excised in toto and examined histologically. […] In contrast, the NaCl-treated tumor appears to be vital (C).
FIG. 10: Histology of the melanoma tumor 1 hour after intravenous injection of tTF-RGD (A and B), tTF-NGR (C and D) and common salt (E and F) in the caudal vein of the tumor-bearing nude mouse. […] The photographs are of representative areas of the tumors (A, C and E: 200× magnification, B, D and F 400× magnification; HE staining (staining described e.g. in H. C. Burck, Histologische Technik-Leitfaden für die Herstellung mikroskopischer Präparate in Unterricht und Praxis, 5th edition, Thieme Verlag, Stuttgart 1982, pages 109 ff.).
FIG. 35: Macrograph of a mouse bearing an M21 tumor at the end of treatment (day 7) with tTF-RGD fusion protein (A, C) or NaCl (B, D).
To verify the mechanism of action of thrombosis induction in tumor vessels, the following experiment was carried out: the human melanoma cell line was injected into the flank of two male BALB/c nude mice. On attaining a tumor size of approx. 500 mm^3, 2.0 mg/kg BW tTF-NGR or NaCl was injected into the caudal vein. […] After 60 min the mice were exsanguinated, the tumor was excised in toto and investigated histologically. […] In contrast, the tumor treated with NaCl appears to be vital (FIG. 9C).

[2] = test system: normal tissue such as heart, kidney, liver and lung; assay: Histology of normal organs after injection (clotting, necrosis, organ toxicity); settings: repeated high doses (4 mg/kg BW)
[3] = test system: human malignant melanoma (M21); assay: M21 melanoma xenograft in athymic nude mice, intravenous therapy; format: in vivo
Description: The vertical arrows indicate the times of injection with the respective substances.
The vertical arrows indicate the times of the injections with the respective substances.
as §1

[4] = test system: human fibrosarcoma (HT1080); assay: HT1080 fibrosarcoma xenograft in BALB/c nude mice, intravenous therapy; format: in vivo; settings: HT1080 tumors
Text: b: Inhibition of a human fibrosarcoma (HT1080) growing as a xenograft in athymic nude mice by intravenous therapy with tTF fusion proteins (tTF-RGD, n=12) compared with the growth of the tumors with infusion of physiological saline solution (NaCl, n=15) or tTF (n=14). The vertical arrows indicate the times of the injections with the respective substances.
The antitumor activity of the tTF-RGD fusion protein was also investigated in BALB/c nude mice with fibrosarcomas (HT1080). These tumors grow rapidly and are well-vascularized. […] This effect lasted until the end of the experiment on day 7 (P=0.021 for tTF-RGD relative to the buffer control (physiological saline solution), P=0.005 for tTF-RGD relative to tTF).

[5] = target: T1, activation of factor X to factor Xa via factor VIIa (Homo sapiens, UniProt P08709); assay: Cofactor activity in activation of FX by FVIIa (Michaelis-Menten analysis, chromogenic FXa readout); format: biochemical; settings: in the presence of phospholipids
T1 construct: 50 nM recombinant FVIIa (Novo-Nordisk) in TBS-BSA; purchased Novo-Nordisk (FVIIa); Enzyme Research Laboratories (FX)
T1 sequence (P08709 61-212 limits assumed): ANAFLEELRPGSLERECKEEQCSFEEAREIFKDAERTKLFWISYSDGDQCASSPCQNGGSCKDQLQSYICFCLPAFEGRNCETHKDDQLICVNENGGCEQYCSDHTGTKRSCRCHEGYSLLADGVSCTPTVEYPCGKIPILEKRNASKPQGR
T1 sequence (P08709 213-466 limits assumed): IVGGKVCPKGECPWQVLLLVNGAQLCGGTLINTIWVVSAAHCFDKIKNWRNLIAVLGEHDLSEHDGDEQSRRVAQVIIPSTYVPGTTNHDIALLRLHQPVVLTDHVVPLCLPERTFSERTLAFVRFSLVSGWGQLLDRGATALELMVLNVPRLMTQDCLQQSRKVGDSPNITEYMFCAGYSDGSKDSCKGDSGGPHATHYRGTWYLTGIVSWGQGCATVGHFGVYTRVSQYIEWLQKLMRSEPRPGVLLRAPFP
Description: The ability of tTF and of the tTF fusion polypeptides to intensify the specific proteolytic activation of FX via FVIIa in the presence of phospholipids was determined in a slightly modified version of the method described by Ruf (45). For this, 20 μl of each of the following reagents was pipetted in microtiter plates: (a) 50 nM recombinant FVIIa (Novo-Nordisk) in TBS-BSA; (b) 0.16 nM-1.6 μM tTF/tTF fusion polypeptide in TBS-BSA; (c) 25 mM CaCl2 and 500 μM phospholipid vesicle (phosphatidylcholine/phosphatidylserine, 70/30, M/M; Sigma). After 10 min incubation at room temperature, 20 μl of the natural substrate FX (Enzyme Research Laboratories) was added at a concentration of 5 μM. Then a sample was taken by pipette at one-minute intervals and the reaction was stopped by adding 100 mM EDTA solution. The amount of FXa that formed was measured by addition of the chromogenic substrate Spectrozyme FXa in a Microplate Reader by determining the change in absorption at 405 nm and the parameters for the Michaelis-Menten kinetics were analysed by the method described by Ruf. […] The Michaelis constants (Km) found for the fusion polypeptides were in the range 0.12-1.2 nM (FIG. 3), and thus in the lower range that is published for tTF. It can therefore be assumed that the functional activity is unaffected by the fusing of tTF with the peptides.

[6] = melanoma tumor 1 hour after intravenous injection, HE staining

GRGDSP: synthetic peptide with the sequence GRGDSP (SEQ ID NO:33) from the company Gibco
reduction in binding of tTF-RGD to endothelial cells (human endothelial cells): 75%
p of inhibition of tTF-RGD binding (Mann-Whitney test) (integrin αvβ3; both RGD peptide concentrations (1-10 μM)): < 0.001
competitive inhibition of binding of tTF-RGD to immobilized αvβ3 (integrin αvβ3; tTF-RGD 0.1 μM, peptide 1-10 μM): competitively inhibits; also recorded: inhibited significantly

B1: tTF-NGR: fusion polypeptide tTF-GNGRAHA (SEQ ID NO:4) (protein)
chain: SGTTNTVAAYNLTWKSTNFKTILEWEPKPVNQVYTVQISTKSGDWKSKCFYTTDTECDLTDEIVKDVKQTYLARVFSYPAGNVESTGSAGEPLYENSPEFTPYLETNLGQPTIQSFEQVGTKVNVTVEDERTLVRRNNTFLSLRDVFGKDLIYTLYYWKSSSSGKKTAKTNTNEFLIDVDKGENYCFSVQAVIPSRTVNRKSTDSPVECMGQEKGEFRGNGRAHA
modifications: Amino acid sequence of tTF-GNGRAHA
effect on tumor growth ([1]; CCL185 xenograft, intravenous therapy, compared with NaCl or tTF): Inhibition
histology of tumor blood vessels (thrombus formation) (tumor blood vessels; [6]): microscopically visible thrombus formation in the blood vessels; also recorded: blood vessels appear to be thrombolytically occluded
histology: tumor necrosis in supply region of occluded vessel (tumor blood vessels; [6]): Extensive tumor necroses
macroscopic picture of the tumor in vivo (tumor blood vessels; melanoma, 20 min after 2.0 mg/kg BW into the caudal vein): bluish-livid coloration of the tumor
appearance of the excised tumor (tumor blood vessels; melanoma, excised 60 min after 2.0 mg/kg BW): hemorrhagic imbibition of the tumor
visible clot formation or organ toxicity [2]: did not lead to any visible clot formation or organ toxicity
binding to the αvβ3 integrin in ELISA (integrin αvβ3; 0.1 μM protein, immobilized αvβ3): demonstrated
effect on tumor growth ([3]; M21 xenograft, intravenous therapy, compared with NaCl or tTF): Inhibition and partial remission

B2: tTF: truncated human tissue factor, N-terminal 218 amino acids of TF (SEQ ID NO:2) (protein, listed as Homo sapiens)
chain: SGTTNTVAAYNLTWKSTNFKTILEWEPKPVNQVYTVQISTKSGDWKSKCFYTTDTECDLTDEIVKDVKQTYLARVFSYPAGNVESTGSAGEPLYENSPEFTPYLETNLGQPTIQSFEQVGTKVNVTVEDERTLVRRNNTFLSLRDVFGKDLIYTLYYWKSSSSGKKTAKTNTNEFLIDVDKGENYCFSVQAVIPSRTVNRKSTDSPVECMGQEKGEFR
modifications: Amino acid sequence of tTF1-218
Mean tumor volume Day 0 ([1]; CCL185 tumors, Day 0 (baseline)): 44 ± 8 mm^3
Mean tumor volume Day 7 ([1]; CCL185 tumors, Day 7): 764 ± 148 mm^3
Mean tumor volume Day 0 ([4]; Day 0 (baseline)): 1751 ± 269 mm^3
Mean tumor volume Day 7 ([4]; Day 7): 2335 ± 398 mm^3
functional activity (cofactor activity in FX activation via FVIIa) [5]: functionally active
Mean tumor volume Day 0 ([3]; M21 tumors, Day 0 (baseline)): 558 ± 47 mm^3
Mean tumor volume Day 7 ([3]; M21 tumors, Day 7): 931 ± 147 mm^3
